Laboratory results: patent US20060094672A1 (University of Texas, published 2006)
Bridge positions count the residues as written; N and C are the ends. Square brackets hold non-standard residues; d marks the D form. Ends that are not written are not given here. pY = N[C@@H](Cc1ccc(OP(=O)(O)O)cc1)C(=O)O

T1: prohibitin (B cell receptor associated protein; prohibitin receptor protein complex) (mouse)
T1 sequence (P67778 2-272, looked up): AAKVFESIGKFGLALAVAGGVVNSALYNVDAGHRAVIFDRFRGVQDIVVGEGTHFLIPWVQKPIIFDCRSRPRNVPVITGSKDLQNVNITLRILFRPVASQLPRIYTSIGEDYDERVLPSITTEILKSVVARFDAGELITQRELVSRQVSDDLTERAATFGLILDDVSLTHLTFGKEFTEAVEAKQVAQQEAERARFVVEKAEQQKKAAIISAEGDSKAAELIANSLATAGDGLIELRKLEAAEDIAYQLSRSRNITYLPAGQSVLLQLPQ

B1: soluble CPRECESIC (SEQ ID NO:56) peptide (peptide)
peptide: CPRECESIC
modifications: disulfide (positions not given here); not fully specified; also: mix of six MS peaks: possibly different disulfide positions and dimers

Assays:
[1] = target: GST-β5cyto (GST fusion protein of the integrin β5 cytoplasmic domain) (UniProt P18084); assay: phage binding to coated wells; β5 colonies divided by GST colonies
GST-β5cyto (GST fusion protein of the integrin β5 cytoplasmic domain), sequence (P18084 743-799): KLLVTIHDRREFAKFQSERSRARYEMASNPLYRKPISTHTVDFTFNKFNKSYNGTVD

[2] = target: GST-β5cyto (GST fusion protein of the integrin β5 cytoplasmic domain) (UniProt P18084); assay: phage binding to coated wells; β5 colonies divided by BSA colonies
[3] = target: GST-β5cyto (GST fusion protein of the integrin β5 cytoplasmic domain) (UniProt P18084); assay: phage binding to β5 cytoplasmic domain wells; colonies with Fyn-phosphorylated phage divided by colonies with unphosphorylated phage
[4] = target: GST-β3cyto (GST fusion protein of the integrin β3 cytoplasmic domain) (UniProt P05106); assay: phage binding to coated microtiter wells; colonies from β3-GST wells divided by colonies from GST wells
GST-β3cyto (GST fusion protein of the integrin β3 cytoplasmic domain), sequence (P05106 742-788): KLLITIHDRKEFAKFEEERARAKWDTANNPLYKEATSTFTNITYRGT

[5] = target: GST-β3cyto (GST fusion protein of the integrin β3 cytoplasmic domain) (UniProt P05106); assay: phage binding to coated microtiter wells; colonies from β3-GST wells divided by colonies from BSA wells
[6] = target: GST-β3cyto (GST fusion protein of the integrin β3 cytoplasmic domain) (UniProt P05106); assay: phage binding to coated wells; β3 colonies divided by BSA colonies
[7] = target: GST-β3cyto (GST fusion protein of the integrin β3 cytoplasmic domain) (UniProt P05106); assay: phage binding to β3 cytoplasmic domain wells; colonies with Fyn-phosphorylated phage divided by colonies with unphosphorylated phage
[8] = target: GST-β3cyto (GST fusion protein of the integrin β3 cytoplasmic domain) (UniProt P05106); assay: phage binding to coated wells; β3 colonies divided by GST colonies
[9] = target: Aminopeptidase A (APA, EC 3.4.11.7) (UniProt Q07075 1-957, limits assumed); assay: cell-based or functional assay
Aminopeptidase A (APA, EC 3.4.11.7), sequence (Q07075 whole entry): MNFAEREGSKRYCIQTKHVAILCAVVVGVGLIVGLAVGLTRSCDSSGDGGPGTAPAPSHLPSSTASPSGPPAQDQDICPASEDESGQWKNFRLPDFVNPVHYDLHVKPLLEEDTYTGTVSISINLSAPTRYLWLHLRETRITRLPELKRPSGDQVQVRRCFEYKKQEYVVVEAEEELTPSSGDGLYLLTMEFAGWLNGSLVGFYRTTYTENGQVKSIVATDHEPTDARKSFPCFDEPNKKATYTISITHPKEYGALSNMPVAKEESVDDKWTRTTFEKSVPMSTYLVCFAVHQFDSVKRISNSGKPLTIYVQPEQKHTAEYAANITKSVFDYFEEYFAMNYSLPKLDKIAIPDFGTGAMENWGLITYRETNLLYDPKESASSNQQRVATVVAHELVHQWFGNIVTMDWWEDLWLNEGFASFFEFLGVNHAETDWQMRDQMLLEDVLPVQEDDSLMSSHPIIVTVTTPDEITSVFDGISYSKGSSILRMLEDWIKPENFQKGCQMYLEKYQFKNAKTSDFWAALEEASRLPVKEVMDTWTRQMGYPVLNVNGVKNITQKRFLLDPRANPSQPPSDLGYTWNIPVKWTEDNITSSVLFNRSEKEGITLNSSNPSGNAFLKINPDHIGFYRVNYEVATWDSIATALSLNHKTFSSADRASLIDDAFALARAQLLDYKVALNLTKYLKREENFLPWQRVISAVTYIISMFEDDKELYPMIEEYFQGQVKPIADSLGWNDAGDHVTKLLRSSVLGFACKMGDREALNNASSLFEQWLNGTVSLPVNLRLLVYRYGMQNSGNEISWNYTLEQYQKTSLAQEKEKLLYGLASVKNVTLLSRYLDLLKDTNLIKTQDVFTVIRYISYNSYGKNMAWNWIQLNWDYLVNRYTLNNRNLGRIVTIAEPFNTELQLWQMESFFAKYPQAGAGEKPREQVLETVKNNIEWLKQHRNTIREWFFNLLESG

[10] = target: T1, prohibitin (B cell receptor associated protein; prohibitin receptor protein complex) (mouse); assay: immunoprecipitation from mouse adipose tissue extract with peptide-(KLAKLAK)2 conjugates, SDS-PAGE (data not shown)
[11] = target: GST-β5cyto (GST fusion protein of the integrin β5 cytoplasmic domain) (UniProt P18084); assay: phage binding to coated microtiter wells; colonies from β5-GST wells divided by colonies from BSA wells
[12] = target: GST-β5cyto (GST fusion protein of the integrin β5 cytoplasmic domain) (UniProt P18084); assay: phage binding to coated microtiter wells; colonies from β5-GST wells divided by colonies from GST wells

Row | Binder | β3 or β5/GST [1] | β3 or β5/BSA [2] | Phos/Unphos [3] | β3 or β5/BSA [6] | Phos/Unphos [7] | β3 or β5/GST [8] | also measured
1 | TMLR[pY]TVRL (also: displayed on phage pIII) [Fyn-phosphorylated phage displaying … (SEQ ID NO:52)] | 3.4 | 2.2 | 14.3 |  |  |  | 
2 | AGWLYMSWK [phage displaying … (SEQ ID NO:35)] |  |  |  |  |  |  | β3/GST Ratio [4]: 1.8; β3/BSA Ratio [5]: 2.4
3 | MLLG[pY]RFEK (also: displayed on phage pIII) [Fyn-phosphorylated phage displaying … (SEQ ID NO:51)] |  |  |  | 2.7 | 2.5 | 3.5 | 
4 | TMLR[pY]FMFP (also: displayed on phage pIII) [Fyn-phosphorylated phage displaying … (SEQ ID NO:53)] | 2.3 | 3.8 | 4.2 |  |  |  | 
5 | B1 |  |  |  |  |  |  | IC50 for inhibition of APA enzyme activity (α-glutamyl-p-nitroanilide, SK-RC-49/APA cells) [9]: 800 µM
6 | GGGS[pY]RHVE (also: displayed on phage pIII) [Fyn-phosphorylated phage displaying … (SEQ ID NO:49)] |  |  |  | 5.3 | 13.2 | 1.5 | 
7 | RAIL[pY]RLAN (also: displayed on phage pIII) [Fyn-phosphorylated phage displaying … (SEQ ID NO:50)] |  |  |  | 20 | 2.8 | 1.3 | 
8 | TLRK[pY]FHSS (also: displayed on phage pIII) [Fyn-phosphorylated phage displaying … (SEQ ID NO:54)] | 3.8 | 15.2 | 3.8 |  |  |  | 
9 | CKGGRAKDCGG[dK][dL][dA][dK][dL][dA][dK][dK][dL][dA][dK][dL][dA][dK] (disulfide 1-9) [… (SEQ ID NO:22) conjugated to (KLAKLAK)2 (SEQ ID NO:1)] |  |  |  |  |  |  | fold enrichment in the … precipitated fraction compared to the CARAC precipitated fraction [10]: > 10 >fold
10 | CKLWQEDGY (also: displayed on phage pIII) [phage displaying … (SEQ ID NO:42)] |  |  |  |  |  |  | β5/BSA Ratio [11]: 665; β5/GST Ratio [12]: 1.8
